Measurements as given in patent KR20220013311A (dated 2022).

How the values were obtained:
[1] = molecular target: T1, SARS-CoV-2 바이러스 표면 단백질 (RBD) (SARS-CoV-2, UniProt P0DTC2 319-541); test: BLI (Octet), full IgG against RBD; printed as kdis
[2] = molecular target: T1, SARS-CoV-2 바이러스 표면 단백질 (RBD); test: BLI (Octet), full IgG against SARS-CoV-2 RBD
[3] = molecular target: T1, SARS-CoV-2 바이러스 표면 단백질 (RBD); test: BLI (Octet), full IgG against RBD

B1: No. 32 항체 (Full IgG) (antibody, V domains shown)
VH: EVQLVQSGGGLIQPGGSLRLSCAASEFIVSSNYMTWVRQAPGKGLEWVSIIYPGGSTYYADSVKGRFTISRDNSKNTLYLRMNSLRAEDTAVYYCARDLPLTGTTLDYWGQGTLVTVSS
VL: not shown
- koff [1]: 0.000193 s⁻¹
- Kd [2]: 0.147 nM
- Kd [3]: 0.305 nM
- kon [3]: 633000 M⁻¹ s⁻¹
